Data as given in US20250092130A1 (INNATE PHARMA, published 2025).
One block for each binder: values may come before it.

Experiments:
[1] = biological target: KIR3DL2 mutant M11A4 (E130S, H131S, R145S) (human, UniProt P43630 22-455); test: binding to cells transfected with KIR3DL2 mutants
[2] = biological target: KIR3DL2 mutant 11A1 (V178A, H180S) (human, UniProt P43630 22-455); test: binding to cells transfected with KIR3DL2 mutants
[3] = biological target: KIR3DL2 mutant 11 (P179T, S181T) (human, UniProt P43630 22-455); test: binding to cells transfected with KIR3DL2 mutants
[4] = biological target: T1, human KIR3DL2 (wild-type, allele *002) (human, UniProt P43630 22-455); test: flow cytometry on HUT78, COU-L and HEK-293T/KIR3DL2 Domain 0-eGFP cells; Biacore on rec KIR3DL2 chips
T1 construct: also called CD158k; WTaKIR3DL2
Method: Antibodies which bind KIR3DL2 but not closely-related KIR3DL1 were generated by immunizing mice with recombinant KIR3DL2-Fc fusion protein. Supernatants (SN) of the growing hybridomas were tested by flow cytometry on Sézary Syndrome cell lines (HUT78, COU-L) and HEK-293T/KIR3DL2 Domain 0—eGFP. Potentially interesting hybridomas selected from the initial screening were cloned by limiting dilution techniques in 96-well plates. The secondary screen involved selection of hybridomas of interest by testing supernatants of the subclones by flow cytometry on HUT78, COU-L, HEK-293T/KIR3DL1 Domain 0—eGFP and HEK-293T/KIR3DL2 Domain 0—eGFP. Positive subclones were injected into mice to produce ascitis and antibodies of interest were purified before being tested in a Biacore assay using rec KIR3DL2 chips, followed by various assay formats based on binding to human KIR3DL2-expressing cells.

[5] = biological target: T2, KIR3DL2 mutant having I60N and G62S substitutions (human, UniProt P43630 22-455); test: binding to KIR3DL2 mutants
T2 construct: It says 'mutants'; also called mutants having 160N and G62S substitutions

[6] = biological target: T1, human KIR3DL2 (wild-type, allele *002); test: immunohistochemistry (DAB) on frozen sections of RAJI-KIR3DL2 tumors and cell lines
Method: Tumor biopsies from RAJI-KIR3DL2 models and RAJI-KIR3DL2 cell lines were obtained and staining was performed on frozen samples using AZ158 antibody (see WO2010/081890) or antibodies 12B11 (see Example 1). KIR3DL2 was stained with anti-KIR3DL2 antibody by DAB chromogenic detection according to standard protocols, adapted for immunostaining with BenchMark XT (Ventana, Roche). For all staining control isotype (mIgG1) and control DAB were performed.

Chain of KIR3DL2 mutant 11A1 (V178A, H180S) (P43630 other isoform, or with tags, fused parts or gaps V178A H180S V178A H180S): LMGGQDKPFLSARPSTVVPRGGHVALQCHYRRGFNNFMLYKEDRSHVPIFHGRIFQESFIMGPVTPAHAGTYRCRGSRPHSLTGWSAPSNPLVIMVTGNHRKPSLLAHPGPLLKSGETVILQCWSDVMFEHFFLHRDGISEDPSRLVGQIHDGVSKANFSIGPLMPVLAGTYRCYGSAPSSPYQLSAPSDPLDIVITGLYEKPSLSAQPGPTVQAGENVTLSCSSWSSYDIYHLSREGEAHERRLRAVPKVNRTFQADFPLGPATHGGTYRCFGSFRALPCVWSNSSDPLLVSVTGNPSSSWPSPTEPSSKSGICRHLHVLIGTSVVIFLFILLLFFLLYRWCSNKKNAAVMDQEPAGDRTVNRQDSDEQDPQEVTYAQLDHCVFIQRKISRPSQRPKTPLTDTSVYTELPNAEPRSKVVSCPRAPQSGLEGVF
T1 sequence (P43630 22-455 E158D): as the sequence (P43630 other isoform, or with tags, fused parts or gaps V178A H180S V178A H180S) above, with A178V, S180H counted along it
Chain of KIR3DL2 mutant 11 (P179T, S181T) (P43630 other isoform, or with tags, fused parts or gaps P179T S181T P179T S181T): as the sequence (P43630 other isoform, or with tags, fused parts or gaps V178A H180S V178A H180S) above, with A178V, P179T, S180H, S181T counted along it
T2 sequence (P43630 other isoform, or with tags, fused parts or gaps I60N G62S I60N G62S): as the sequence (P43630 other isoform, or with tags, fused parts or gaps V178A H180S V178A H180S) above, with I60N, G62S, A178V, S180H counted along it
Chain of KIR3DL2 mutant M11A4 (E130S, H131S, R145S) (P43630 other isoform, or with tags, fused parts or gaps E130S H131S R145S E130S H131S R145S): as the sequence (P43630 other isoform, or with tags, fused parts or gaps V178A H180S V178A H180S) above, with E130S, H131S, R145S, A178V, S180H counted along it

binding result [1]: no binding | binding result [2]: no binding | binding result [3]: no binding | binding result [4]: binds
B1: antibody 19H12 (antibody, IgG2b, V domains shown)
VH: QIQLVQSGPELKKPGETVKISCKASGYTFTNFGMNWVKQAPGKGLKWMGWINTYTGEPTYADDFKGRFAFSLETSASTAYLQINNLKNEDMATYFCARNGNFGYYFDYWGQGTTLTVSS
VL: DVLMTQTPLSLPVSLGDQASFSCRSSQNIVHSNGNTYLEWYLQKPGQSPSLLIYKVSNRFSGVPDRFSGSGSGTDFTLKITRVEAEDLGVYYCFQGSHVPFTFGSGTKLEIK
notes: Mouse monoclonal from a hybridoma; also called anti-KIR3DL2 19H12

binding result [5]: no binding
B2: antibody 2B12 (antibody, V domains shown)
VH: QIQLVQSGPELKKPGETVRISCKASGYTFTTAGMQWVQKTPGKGLKWIGWINSHSGVPKYAEDFKGRFAFSLETSASTAYLQISTLKNEDTATYFCARGGDEGVMDYWGQGTSVTVS
VL: DIVMTQSHKFMSTSLGDRVSFTCKASQDVSTAVAWYQQKPGQSPKLLIYWTSTRHTGVPDRFTGSGSGTDYTLTISSVQAEDLALYYCQQHYSTPWTFGGGTKLEIK

binding result [2]: no binding | binding result [3]: no binding | binding result [6]: binds
B3: antibody 12B11 (antibody, IgG1, V domains shown)
VH: QLVQSGPELKNPGETVKISCKASGYTFTNYGMNWVKQAPGKGLKWMGWINTYTGEPTYADDFKGRFAFSLETSASTAYLQINNLKNEDTATYFCAHGPWLAYWGQGTLVTVS
VL: DIKMTQSPSSMYASLGERVTITCKASQDINVYLSWFQQKPGKSPKTLIYRAIRLVDGVPSRFSGSGSGQDYSLTISSLDYEDMGIYYCLQYDELPYTFGGGTKLEIE
notes: Mouse monoclonal
